In patent US10369187B2, “Peptide regulators of JNK family kinases” (Vanderbilt University, priority 2017, dated 2019):
Entries after “also recorded” stand apart in the source; their conditions may differ.

Columns and labels:
MKK7 = target: T1, MKK7 (Homo sapiens, UniProt O14733); assay: MBP pull-down of purified MKK7; assay type: binding; settings: purified GST-MKK7; peptide as MBP-fusion immobilized on amylose
T1 sequence (O14733 1-419): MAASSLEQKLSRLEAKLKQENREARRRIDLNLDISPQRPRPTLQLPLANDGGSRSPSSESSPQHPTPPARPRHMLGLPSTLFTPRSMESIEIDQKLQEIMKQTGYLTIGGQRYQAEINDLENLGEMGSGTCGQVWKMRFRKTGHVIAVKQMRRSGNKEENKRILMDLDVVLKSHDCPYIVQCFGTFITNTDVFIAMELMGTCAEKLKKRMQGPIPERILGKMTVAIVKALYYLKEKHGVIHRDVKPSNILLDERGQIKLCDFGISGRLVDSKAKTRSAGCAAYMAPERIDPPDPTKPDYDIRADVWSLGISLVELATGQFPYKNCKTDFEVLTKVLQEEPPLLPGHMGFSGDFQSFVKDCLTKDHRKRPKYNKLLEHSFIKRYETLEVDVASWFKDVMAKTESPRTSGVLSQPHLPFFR
Protocol: (§1) T1A was expressed in E. coli as an MBP-fusion and purified it on an amylose column^23. The ability of purified GST-MKK4 or GST-MKK7 (FIG. 1A) to bind MBP-T1A immobilized on an amylose column was tested in an in vitro pull-down assay, where MBP and MBP-arrestin-3 served as negative and positive controls, respectively (FIG. 1B). MBP-T1A, but not control MBP, effectively retained both kinases (FIG. 1B). […] Next, it was tested whether T1A binds the uppermost kinase in the cascade, ASK1. Because ASK1 is not available in purified form, HA-tagged ASK1 and YFP-tagged T1A (using YFP as a control) were co-expressed in COS7 cells, lysed the cells, and immunoprecipitated YFP constructs with anti-GFP antibody (FIG. 1C).
To make MBP-fusions containing arrestin-2/3 elements, the cDNAs encoding arrestin fragments were subcloned into pMal-p2T (generous gift from Dr. Keiji Tanaka, Tokyo Institute of Medical Science) between Eco RI and Xho I sites in frame with MBP, as described^23. MBP-Arr3 (full-length arrestin-3) was created by subcloning the corresponding cDNA into pMal-p2T between Eco RI and Not I sites^23. All MBP-arrestin-3 fusion proteins contained the same […] (SEQ ID NO:29) linker between MBP and arrestin-3 or its fragments. […] Eluates were analyzed by SDS-PAGE and Western blotting.

MKK4 = target: T2, MKK4 (Homo sapiens, UniProt P45985); assay: MBP pull-down of purified MKK4; assay type: binding; settings: for binding of MKK4 in MBP pull-down: purified GST-MKK4, peptide as MBP-fusion immobilized on amylose
T2 sequence (P45985 1-399): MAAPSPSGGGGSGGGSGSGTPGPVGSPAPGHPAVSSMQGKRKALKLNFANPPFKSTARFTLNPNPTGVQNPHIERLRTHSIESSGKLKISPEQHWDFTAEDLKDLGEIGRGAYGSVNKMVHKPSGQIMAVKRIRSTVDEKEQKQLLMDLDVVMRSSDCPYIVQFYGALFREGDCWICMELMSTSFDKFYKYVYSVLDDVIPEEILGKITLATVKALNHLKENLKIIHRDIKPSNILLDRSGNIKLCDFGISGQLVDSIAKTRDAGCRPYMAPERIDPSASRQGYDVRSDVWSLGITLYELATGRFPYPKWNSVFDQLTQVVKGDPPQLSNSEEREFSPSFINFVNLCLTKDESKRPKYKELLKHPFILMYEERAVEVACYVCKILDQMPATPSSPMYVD
Protocol: as §1
To make MBP-fusions containing arrestin-2/3 elements, the cDNAs encoding arrestin fragments were subcloned into pMal-p2T (generous gift from Dr. Keiji Tanaka, Tokyo Institute of Medical Science) between Eco RI and Xho I sites in frame with MBP, as described^23. MBP-Arr3 (full-length arrestin-3) was created by subcloning the corresponding cDNA into pMal-p2T between Eco RI and Not I sites^23. All MBP-arrestin-3 fusion proteins contained the same […] (SEQ ID NO:29) linker between MBP and arrestin-3 or its fragments. The MBP protein used as negative control was purified using empty pMal-p2T vector containing the same linker with 10 additional residues: […] (SEQ ID NO:30). MBP fusions were purified, as described^23. MBP pull-down was performed, as described^23. Briefly, Indicated MBP fusions (10-30 μg in 50 μL 20 mM Tris/150 mM NaCl) were immobilized on amylose resin (25 μL, 50% slurry, New England Biolabs) for 1 h at 4° C. with slight rotation. Purified, as described^40, MKK4/7 (10 μg in 50 μL 20 mM Tris/150 mM NaCl) were added to the immobilized MBP fusions and rotated gently for 2 h at 4° C. Samples were transferred to centrifuge filters (Durapore®-PVDF-0.65 μm), washed three times with 50 mM HEPES-Na, pH 7.3, 150 mM NaCl. The proteins were eluted by 100 μl of elution buffer (wash buffer containing 50 mM maltose) by gentle rotation for 5 min at 4° C. Eluates were analyzed by SDS-PAGE and Western blotting.

| binding of MKK7 in MBP pull-down (MKK7) | Substance | binding of MKK4 in MBP pull-down (MKK4) | interaction with MKK4 compared with MKK7 (MKK4; MBP pull-down, purified proteins) |
| --- | --- | --- | --- |
| less robust interaction | MGDK-GTRVFKKASPNGKLTVYLGK (MGDKGTRVFKKASPNGKLTVYLGK; N-terminal MGDK; bovine) [B1A, homologous N-terminal peptide from arrestin-2, negative control] | comparably bind MKK4 |  |
| binds both MKKs | MGEKPGTRVFKKSSPNCKLTVYLGK (bovine) [T1A, first 25 residues of arrestin-3] | binds both MKKs; also recorded: comparably bind MKK4 | stronger interaction with MKK4 than with MKK7 |
